Experimental data taken from US20140223606, “COMPOSITIONS AND METHODS COMPRISING SEQUENCES HAVING MEGANUCLEASE ACTIVITY” (PIONEER HI BRED INTERNATIONAL INC, published 2014).
Numbering of substitutions follows the chain as printed.

Legend:
Assay in all cases: cell_activity; maize
Settings in all cases: tags: SV40 NLS
MHP77.3 = biological target: T1, MHP77.3 (artificial)
T1 chain: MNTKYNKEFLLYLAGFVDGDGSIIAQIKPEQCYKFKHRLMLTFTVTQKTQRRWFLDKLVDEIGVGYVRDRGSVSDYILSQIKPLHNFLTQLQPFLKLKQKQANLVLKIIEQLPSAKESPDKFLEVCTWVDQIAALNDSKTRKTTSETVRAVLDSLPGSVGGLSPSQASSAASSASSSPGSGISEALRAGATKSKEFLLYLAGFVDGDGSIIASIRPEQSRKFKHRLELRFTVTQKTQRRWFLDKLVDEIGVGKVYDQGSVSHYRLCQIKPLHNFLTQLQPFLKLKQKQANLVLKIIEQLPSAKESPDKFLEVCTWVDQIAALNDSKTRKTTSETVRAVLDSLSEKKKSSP

MHP77.3(L9-11) = biological target: T2, MHP77.3(L9-11) (artificial)
T2 chain: T1 chain with Q50K, I81K, K121G, D153L, V316A

MHP77.3(15) = biological target: T3, MHP77.3(15) (artificial)
T3 chain: T1 chain with G19S

MHP77.3(L9-02) = biological target: T4, MHP77.3(L9-02) (artificial)
T4 chain: T1 chain with G19S, Q50R, F54I, I81K, N103V, K121G, I132V, D153L, F281Y

MHP77.3(L9-12) = biological target: T5, MHP77.3(L9-12) (artificial)
T5 chain: T1 chain with G19S, F54I, D56L, D153L, K244E, F281Y, K308G

B1: MHP77 recognition site (dsDNA)
DNA 1: GGGCGGTATGTATGTCATACTA
DNA 2: TAGTATGACATACATACCGCCC
MHP77.3
  activity: 11 % target site mutation rate
MHP77.3(L9-11)
  activity: 35 % target site mutation rate
MHP77.3(15)
  activity: 22 % target site mutation rate
MHP77.3(L9-02)
  activity: 5 % target site mutation rate
MHP77.3(L9-12)
  activity: 19 % target site mutation rate
